In patent publication CN113929777A (DONGGUAN PENGZHI BIOTECHNOLOGY CO LTD, dated 2022):

Target: T1, 重组肌红蛋白(自产) (UniProt P02144 2-154)
T1 construct: The ELISA names it 重组肌红蛋白 and the BLI assay names it MYO蛋白; both are treated as one molecule; also called MYO蛋白; Mb
T1 sequence (looked up): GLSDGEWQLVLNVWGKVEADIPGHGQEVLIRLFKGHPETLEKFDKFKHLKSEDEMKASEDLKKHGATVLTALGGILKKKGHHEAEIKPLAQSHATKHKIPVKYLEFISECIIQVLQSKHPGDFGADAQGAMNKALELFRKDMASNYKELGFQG
Experiment: BLI, antibody captured on AMC sensors, MYO protein in serial dilution

B1: 实施例1的肌红蛋白单克隆抗体(WT) (antibody, mouse IgG1, kappa, V domains shown)
VH: QIQLVQSGPELKKPGETVKISCKASGYTYTEFSVHWVKQAPGKGLKWMGWINSETSEPTYGDDFKGRFAFSLETSASAAYLQINNLKNEDSATYFCARRAYYLFGPFTYWGQGTLVTVSA
VL: DIVLTQSPASLAVSLGQRATISCRASKSVDFNGDSYMNWHQQKPGQPPKLLIYAASQRESGIPARFSGSGSGTDFTLNIHPVEEEDAATYYCQHSNEEPYTFGGGTKLEIKR
notes: Recombinant antibody cloned from hybridoma 5G9 and expressed in CHO cells; Detected with goat anti-mouse IgG-HRP; also called WT抗体; 5G9 recombinant antibody
With B1 the Kd was 4.56 nM, the koff was 0.000118 s⁻¹ and the kon was 25900 M⁻¹ s⁻¹.
